Reference: paper PMC11065870

Experiments:
[1] = native MS, super-dimer vs heterodimer abundance; settings: glycan changed form; control: fully glycosylated WT
[2] = mass photometry in GDN, super-dimer/heterodimer ratio; settings: glycan changed form; control: fully sialylated WT

B1: 4F2hc (4F2 cell-surface antigen heavy chain): neuraminidase (desialylated) (protein)
parent chain: MELQPPEASIAVVSIPRQLPGSHSEAGVQGLSAGDDSELGSHCVAQTGLELLASGDPLPSASQNAEMIETGSDCVTQAGLQLLASSDPPALASKNAEVTGTMSQDTEVDMKEVELNELEPEKQPMNAASGAAMSLAGAEKNGLVKIKVAEDEAEAAAAAKFTGLSKEELLKVAGSPGWVRTRWALLLLFWLGWLGMLAGAVVIIVRAPRCRELPAQKWWHTGALYRIGDLQAFQGHGAGNLAGLKGRLDYLSSLKVKGLVLGPIHKNQKDDVAQTDLLQIDPNFGSKEDFDSLLQSAKKKSIRVILDLTPNYRGENSWFSTQVDTVATKVKDALEFWLQAGVDGFQVRDIENLKDASSFLAEWQNITKGFSEDRLLIAGTNSSDLQQILSLLESNKDLLLTSSYLSDSGSTGEHTKSLVTQYLNATGNRWCSWSLSQARLLTSFLPAQLLRLYQLMLFTLPGTPVFSYGDEIGLDAAALPGQPMEAPVMLWDESSFPDIPGAVSANMTVKGQSEDPGSLLSLFRRLSDQRSKERSLLHGDFHAFSAGPGLFSYIRHWDQNERFLVVLNFGDVGLSAGLQASDLPASASLPAKADLLLSTQPGREEGSPLELERLKLEPHEGLLLRFPYAA
oligomerisation [1]: decreases | oligomerisation [2]: decreases
